Data as given in patent US20200230115A1, “METHODS OF TREATING INFLUENZA-ASSOCIATED VIRAL PNEUMONIA” (priority 2017, published 2020).
“Also recorded” adds a separate entry of the source.

Experiments:
Parameters in all cases: species or system DBA/2J mice
Details in all cases: mouse, in vivo
IAV (WSNHAnc-Asp225Gly) [1] = tested on: IAV (WSNHAnc-Asp225Gly)
IAV (WSNHAnc-Asp225Gly) [2] = tested on: IAV (WSNHAnc-Asp225Gly); remark: listed apart in the source
IAV (WSNHAnc-Asp225Gly) [3] = tested on: IAV (WSNHAnc-Asp225Gly); remark: listed apart in the source

B1: KGF: keratinocyte growth factor, a potent pulmonary epithelial mitogen; cognate receptor FGFR2 (protein, UniProt P21781 32-194, looked up)
Fibroblast growth factor 7: CNDMTPEQMATNVNCSSPERHTRSYDYMEGGDIRVRRLFCRTQWYLRIDKRGKVKGTQEMKNNYNIMEIRTVAVGIVAIKGVESEFYLAMNKEGKLYAKKECNEDCNFKELILENHYNTYASAKWTHNGGEMFVALNQKGIPVRGKKTKKEQKTAHFLPMAIT
IAV (WSNHAnc-Asp225Gly) [1]
  IAV-NP staining of lung sections: substantially more intense; also recorded: markedly more intense and diffuse
  blinded semiquantitative analysis of IAV-NP staining: KGF-induced increase in viral burden and acceleration of spread
IAV (WSNHAnc-Asp225Gly) [2]
  pulmonary viral burden vs PBS/IAV controls: three- to fivefold greater; also recorded: No difference in viral burden
IAV (WSNHAnc-Asp225Gly) [3]
  KGF dose of maximal effect on IAV-induced mortality: 5 mg/kg
  mortality after KGF pretreatment: did not enhance mortality
  mortality, dose response: dose-dependent acceleration of mortality
  shortening of survival: 3 days
